{"source": "the nanobody polyreactivity screen of Harvey et al. (2022)"}
{"experiment": "yeast display, Sf9 membrane polyspecificity reagent, FACS + sequencing; frameworks hold sequencing errors", "in_short": "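Nanobodies came from a synthetic yeast display library in Saccharomyces cerevisiae BJ5465, induced with galactose for 36–48 hours and stained for 1 hour at 4 °C with 10% biotinylated, detergent-solubilized Sf9 membrane reagent. Cells were enriched on streptavidin microbeads and then FACS-sorted, with low and high (top ~1%) gates set on anti-HA fluorescence for expression and streptavidin fluorescence for reagent binding. Each polyreactivity label reflects the gate a clone came from. Genes were amplified by colony PCR, sequenced by MiSeq 2 × 250 and filtered by CDR length.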"}
{"sequence": "QVQLVESGGGLVQAGGSLRLSCAASGSIFRRNAMGWYRQAPGKEREFVAAITWIGGSTYYADSVKGRFTISRDNAKNTVYLQMNSLKPEDTAVYYCAAKYRTYPSNYYYWGQGTQVTVSS", "polyreactivity (PSR sort gate)": "high polyreactivity"}
{"sequence": "QVQLVESGGGLVQAGGSLRLSCAASGNIFSSYVMGWYRHAPGKERELVAAISSRGGSTYYADSVKGRFTISRDNAKNTVYLQMNSLKPEDTAVYYCAARYLSWYDWGQGTQVTVSS", "polyreactivity (PSR sort gate)": "high polyreactivity"}
{"sequence": "QVQLVESGGGLVQAGGSLRLSSAASGSIFYDYAMGWYRQAPGKERELVAAITNDDSSTYYADSVKGRFTISRDNAKNTVYLQMNSLKPEDTAVYYCRFKYAVAHHFWVYRYDYWGQGTQVTVSS", "polyreactivity (PSR sort gate)": "low polyreactivity"}
{"sequence": "QVQLVESGGGLVQAGGSLRLSCAASGFIFRYYAMGWYRQAPGKERELVAAISSSGGCTYYADSVKGRFTISRDNSKNTVYLLMNRMKPEDTAVYFCAARDLRKLFSLYPYYYWGQGTHVTVSS", "polyreactivity (PSR sort gate)": "high polyreactivity"}
{"sequence": "QVQLVESGGGLVQAGASLRLSCAASGSIFRRNAMGWYRQAPGKERELVAAISYRGGSTNYADSVKGRFTISRDNAKNTVYLQMNSLKPEDTAVYYCAAKIYRSSGQGMDYWGQGTQVTVSS", "polyreactivity (PSR sort gate)": "low polyreactivity"}
{"sequence": "QVQLVESGGGLVQAGGSLRLSCAASGRIFDIYAMGWYRQAPGKERELVASISWSGDSTYYADSVKGRFTISRDNAKNTVYLEMNSLKPEDTAVYYCAAEGEDTEGYDYDYWGQGTQVTVSS", "polyreactivity (PSR sort gate)": "low polyreactivity"}
{"sequence": "QVQLVESGGGLFQAGGSLRLSCAASGITFAYYAMAWYRQAPGKERELVARISRRGGSTYYADSVKGRFTISRDNAKNTVYLQMNSLKPEDTAVYYCAARVVVPKPYVDGDYWGQGTQVTVSS", "polyreactivity (PSR sort gate)": "high polyreactivity"}
{"sequence": "QVQLVESGGGLVQAGGSLRLSCAASGFTFYKYVMGWYRPAPGKERELVAAITTSGGSTYYADSVKGRFTISRDNAKNTVYLQMNCLKPEDTAVYYCNARSLHTSEGDYWGQGTQVTVSS", "polyreactivity (PSR sort gate)": "low polyreactivity"}
{"sequence": "QVQLVESGGGLVQAGGSLRLSCAASGSTFARNAMGWFRQAPGKEREFVASIRWGRGTTYYADSVKGRFTNSRDNAKNTLYLQLNSMIPEDSAVYYCATRNSSKRRGYYYWGQGTQVNVSS", "polyreactivity (PSR sort gate)": "high polyreactivity"}
{"sequence": "QVQLVESGGGLVQAGGSLRLSCAASGSIFGGYAMGWYRQAPGNERELVAAITYSAGNTYYADSVKGRFTISRDNAKNTVYLKMKSLKPEDTAVYYCAARTYRGPQYQYGNNYWGQGTQVTVSS", "polyreactivity (PSR sort gate)": "high polyreactivity"}
{"sequence": "QVQLVESGGGLVQAGGSLRLSCAASGSIFSPYAMGWYRQAPGKERELVAAISWTGGRTYYADSVKGRFTISRDNAKNTVYLQMNSLKPEDTAVYYGAAAYYGTRPYGYWGQGTQVTVSS", "polyreactivity (PSR sort gate)": "high polyreactivity"}
{"sequence": "QVQLVESGGGLVQAGGSLRLSCAASGSIFRSNALGWYRQAPGKERELVAAISWSGGRTYYADSVKGRFTISRDNAKNTVSLQMTSLKPEDTAVYYCAVGFRTLHGDYGYWGQGTQVTVSS", "polyreactivity (PSR sort gate)": "high polyreactivity"}
{"sequence": "QVQLVESGGGLVQAGGSLRLSCAASGRIFSWYAMGWYRQAPGKERELVAAISWRGGSTYYADSVKGRFTISRDNAKNTVYLQMNSLKPEDTAVYYCIGGPGGYDYWGHGTQVTVSS", "polyreactivity (PSR sort gate)": "low polyreactivity"}
{"sequence": "QVQLVESGGGLVQAGGSLRLSCAASGFTFDSYAMGWYRQAPGKERELVAAITSGDSTHYADSVKGRFTISRDNAKNTVYLQMNSLKPEDTAVYYCAASGFPYPYDYWGQGTQVTVSS", "polyreactivity (PSR sort gate)": "low polyreactivity"}
{"sequence": "QVQLVESGGGLVQAGGSLRLSCAASGFTFTYYAMGWYRQAPGTERELVAAISWRGTSTFYADSVKGRFTISRDNAKNTVYLQMNSLKPEDTAVYYCAAVGQWGYGYWGLGTQVTVSS", "polyreactivity (PSR sort gate)": "high polyreactivity"}
{"sequence": "QVQLVESGGGLVQAGGSLRLSCAASGSISADDVMGWYRQAPGKERELVAAISVSAGTTYYADSVKGRFTISRDNAKNSVYLQMNSLKPEDSAVYYCAATDSYYWLYYYGYSPGNDYWGQGTQVNVSS", "polyreactivity (PSR sort gate)": "low polyreactivity"}
{"sequence": "QVQLVESGGGLVQAGGSLRLSCAASGRIFGGYAMGWYRQAPGKERELVAVINGGTSTKYADSVKGRFTISRDNAKNTVYLQMNSLKPEDNAVYYCAKTRHDSLQNRNRYDYWGQGTQVTVSS", "polyreactivity (PSR sort gate)": "low polyreactivity"}
{"sequence": "QVQLVESGGGLVQAGGSLRLSCAATGFTFSLYGMGWYRQAPGKERELVAAIRSGGSTNYADSVKGRFTISRDNAKNTVYLQMNSLKPVDTAVYYCATDIHSVHNNRDKHDYDYWGQGTQVTVSS", "polyreactivity (PSR sort gate)": "low polyreactivity"}
{"sequence": "QVQLVESGGGLVQAGGSLRLSCAASGSTFSDNAMGWYRQAPGKERELVAGITGGGGTYYADSVKGRFTISRDNAKNTVYLQMNSLKPEDTAVYYCAADTWGTPTPFVHYPEFEHWGQGTQVTVSS", "polyreactivity (PSR sort gate)": "low polyreactivity"}
{"sequence": "QVQLVESGGGLVQAGGSLRLSCAASGYTFQYYAMGWYRQAPGKERELVAAISRGVGSTTYYADSVKGRFTISRDNAKNTVYLQMNSLKPEDTAVYYCNHDFLGDEYDYWGQGTQVTVSS", "polyreactivity (PSR sort gate)": "high polyreactivity"}
{"sequence": "QVQLVESGGGLVQAGGSLRLSCAASGFTFANYAMGWYRQAPGKERELVAAITRTAGSTYYADSVKGRFTISRDNAKNTVYLQMNSLKPEDTAVYYCAVEGIYRWYDYSWYYTSTYDYWGQGTQVTVSS", "polyreactivity (PSR sort gate)": "low polyreactivity"}
{"sequence": "QVQLVESGGGLVQAGGSLRLSCAASGSIFQAYVMGWYRQAPGKERELVATIDRRGGITYYADSVKGRFTISRDNAKNTVYLQMNSLKPEDTAVYYCATRTRLAQYSRGRYRYDYWGQGTQVTVSS", "polyreactivity (PSR sort gate)": "high polyreactivity"}
